Biological target: T1, recombinant I-domain of α2 integrin subunit (human, UniProt P17301 169-366)
T1 construct: domain: I-domain; Expressed from pQE30 and purified by Ni2+-chelating chromatography; also called α2-I domain
T1 sequence: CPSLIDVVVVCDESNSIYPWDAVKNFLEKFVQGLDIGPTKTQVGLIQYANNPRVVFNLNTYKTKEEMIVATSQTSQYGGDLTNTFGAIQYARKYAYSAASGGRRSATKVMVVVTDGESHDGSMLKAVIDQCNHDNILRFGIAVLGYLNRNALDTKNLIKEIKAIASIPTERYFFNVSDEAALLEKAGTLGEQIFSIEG
Assay: SPR (BIACORE 3000), P176 immobilized on a CM5 chip, α2-I as analyte, 1 mM MgCl2; Scatchard analysis of the equilibrium responses

B1: recombinant P176 (Scl1.41 recombinant protein) (other)
chain: EDSETATARTKLLEKLTELRSQSQDRVPQTSDITQAYTLWGTSYDSVELYKYLQQIEEYLQKQKYHEEQWKKEITDGLKSGALRGEKGEAGPQGEKGLPGLTGLPGLPGERGPRGPKGDRGETGAQGPVGPQGEKGEAGTPGKDGLRGPQGDPGAPGKDGAPGEKGDRGETGAQGPVGPQGEKGEAGTPGKDGAPGEKGEKGDRGETGATGAQGPQGEAGKDGAQGPVGPQGEKGETGAQGPAGPQGEKGETGAQGPAGPQGEAGQPGEKAPEKSPEVTPTPEMPEQPGEQAPEKSKEVTPAPEKWSHPQFEK
notes: Expressed in E. coli from pSL176 (scl1.M41 allele, GenBank AY452037); also called Scl P176
Q: Which Kd does the source give for B1 here?
A: Its Kd is 17 nM.
